Article PMC4749977, “Alp7/TACC-Alp14/TOG generates long-lived, fast-growing MTs by an unconventional mechanism” (Scientific Reports, 2016)

Legend:
[1] = biological target: the molecule itself; test: DIC video microscopy of microtubule growth; addition of GTP-tubulin to plus and minus ends of MTs nucleated by axoneme fragments; growth rate against tubulin concentration, linear regression, apparent rate constants; 100 mM K-PIPES, 1 mM MgSO4, 2 mM EGTA, 1 mM DTT pH 6.9, 1 mM GTP, no glycerol, 25 °C
[2] = biological target: T1, Alp7 with Alp14-GFP (tip tracking Alp7-14 complexes) (S. pombe, UniProt O94534 1-809; Q9URY2 1-474, biotin on the AviTag (BirA ligase co-expressed to ensure biotinylation)); test: TIRF microscopy of Alp14-GFP on dynamic microtubules; dual-TIRF; MTs nucleated by immobilized Alexa488 labeled seeds using 6 μM S. pombe tubulin doped with 2.5% (150 nM) rhodamine labeled brain tubulin; Alp14-GFP without or with Alp7; settings: both partners purified
T1 construct: Alp14 of S. pombe, as the chain of m9; Alp7 of S. pombe, full length, as the chain of m2; source: each from Sf9 insect cells (baculovirus), purified, added together to the assay
T1 sequence (looked up) 1: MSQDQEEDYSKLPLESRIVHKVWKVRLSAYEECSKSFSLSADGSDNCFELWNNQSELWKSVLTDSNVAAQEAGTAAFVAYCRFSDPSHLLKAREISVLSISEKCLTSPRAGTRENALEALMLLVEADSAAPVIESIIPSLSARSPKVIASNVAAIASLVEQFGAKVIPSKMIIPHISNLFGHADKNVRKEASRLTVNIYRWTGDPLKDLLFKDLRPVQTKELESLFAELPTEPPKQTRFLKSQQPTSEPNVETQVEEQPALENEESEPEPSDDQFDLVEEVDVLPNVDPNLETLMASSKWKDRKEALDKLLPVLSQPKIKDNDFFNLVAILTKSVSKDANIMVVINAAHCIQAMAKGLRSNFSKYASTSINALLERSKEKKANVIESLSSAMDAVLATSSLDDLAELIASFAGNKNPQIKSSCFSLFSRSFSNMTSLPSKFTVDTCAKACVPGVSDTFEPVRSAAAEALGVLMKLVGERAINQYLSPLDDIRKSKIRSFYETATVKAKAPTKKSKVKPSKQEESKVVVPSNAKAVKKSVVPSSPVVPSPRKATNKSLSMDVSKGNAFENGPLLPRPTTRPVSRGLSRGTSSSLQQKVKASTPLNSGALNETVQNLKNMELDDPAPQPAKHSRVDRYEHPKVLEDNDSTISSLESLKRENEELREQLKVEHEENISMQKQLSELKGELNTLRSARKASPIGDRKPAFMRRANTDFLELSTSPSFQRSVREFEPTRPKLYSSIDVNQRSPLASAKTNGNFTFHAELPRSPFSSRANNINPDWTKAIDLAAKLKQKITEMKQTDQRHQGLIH
T1 sequence (looked up) 2: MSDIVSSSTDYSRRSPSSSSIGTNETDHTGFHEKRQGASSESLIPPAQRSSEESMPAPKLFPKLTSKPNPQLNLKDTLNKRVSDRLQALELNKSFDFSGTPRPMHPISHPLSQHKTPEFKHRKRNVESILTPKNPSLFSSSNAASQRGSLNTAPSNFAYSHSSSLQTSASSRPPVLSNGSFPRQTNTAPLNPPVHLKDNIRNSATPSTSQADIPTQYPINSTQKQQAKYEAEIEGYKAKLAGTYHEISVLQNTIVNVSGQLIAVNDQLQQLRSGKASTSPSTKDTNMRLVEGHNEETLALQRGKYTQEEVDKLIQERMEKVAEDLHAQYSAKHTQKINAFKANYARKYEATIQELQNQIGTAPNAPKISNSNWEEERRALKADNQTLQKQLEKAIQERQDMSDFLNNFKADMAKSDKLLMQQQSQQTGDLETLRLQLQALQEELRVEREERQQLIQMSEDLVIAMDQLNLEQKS

[3] = biological target: T2, Alp7-14 complex (full length Alp14 mixed with full length Alp7) (S. pombe, UniProt O94534 1-809; Q9URY2 1-474, biotin on the AviTag (BirA ligase co-expressed to ensure biotinylation)); test: glycerol gradient centrifugation; 5-40% glycerol gradient of purified Alp14, Alp7 and tubulin, alone or mixed; tubulin as GTP-tubulin where stated; fractions on SDS-PAGE with Coomassie staining; settings: both partners purified
T2 construct: Alp14 of S. pombe, full length, as the chain of m1; Alp7 of S. pombe, full length, as the chain of m2; also called Alp7/TACC-Alp14/TOG; source: each from Sf9 insect cells (baculovirus), purified, then mixed
T2 sequence (looked up) 1: T1 sequence (looked up) 1
T2 sequence (looked up) 2: T1 sequence (looked up) 2

B1: S. pombe single isoform (α1β) tubulin (complex)
chain 1: MREVISVHVGQAGVQIGNACWELYCLEHGIGPDGFPTENSEVHKNNSYLNDGFGTFFSETGQGKFVPRSIYVDLEPNVIDQVRTGPYKDLFHPEQMVTGKEDASNNYARGHYTVGKEMIDSVLERIRRMADNCSGLQGFLVFHSFGGGTGSGLGALLLERLNMEYGKKSNLQFSVYPAPQVSTSVVEPYNSVLTTHATLDNSDCTFMVDNEACYDICRRNLDIERPTYENLNRLIAQVVSSITASLRFAGSLNVDLNEFQTNLVPYPRIHFPLVTYSPIVSAAKAFHESNSVQEITNQCFEPYNQMVKCDPRTGRYMATCLLYRGDVIPRDVQAAVTSIKSRRTIQFVDWCPTGFKIGICYEPPQHVPGSGIAKVNRAVCMLSNTTSIAEAWSRLDHKFDLMYSKRAFVHWYVGEGMEEGEFSEAREDLAALERDYEEVGQDSMDNEMYEADEEY
chain 2: MREIVHIQAGQCGNQVGAAFWSTIADEHGLDSAGIYHGTSEAQHERLNVYFNEAAGGKYVPRAVLVDLEPGTMDAVKSGKFGNLFRPDNIIYGQSGAGNIWAKGHYTEGAELADAVLDVVRREAEACDALQGFQLTHSLGGGTGSGMGTLLLSKIREEYPDRMMATFSVAPAPKSSDTVVEPYNATLSMHQLVENSDETFCIDNEALSSIFANTLKIKSPSYDDLNHLVSAVMAGVTTSFRFPGELNSDLRKLAVNMVPFPRLHFFMVGFAPLAAIGSSSFQAVSVPELTQQMFDANNMMVAADPRHGRYLTVAALFRGKVSMKEVDEQIRSVQTKNSAYFVEWIPDNVLKAVCSVPPKDLKMSATFIGNSTSIQEIFRRLGDQFSAMFRRKAFLHWYTGEGMDEMEFTEAESNMNDLVSEYQQYQEAGIDEGDEDYEIEEEKEPLEY
notes: alpha-1 tubulin of S. pombe, untagged, endogenous; beta tubulin of S. pombe, untagged, endogenous; Used as free heterodimer (GTP or GDP form) in the gradients and polymerised into dynamic microtubules in the microscopy assays; the assay's format tells which; also called single isoform S. pombe tubulin; S. pombe tubulin; source: purified from S. pombe single isoform strain (mmsp174): ion exchange, …
Q: With B1 as the binder, how does the “Kd = koff/kon (critical concentration), minus end” value [1] read?
A: Its value is 900 nM.

Q: What about the “Kd = koff/kon (critical concentration), plus end” value [1] of the same binder?
A: Its value is 1200 nM.

Q: Does B1 bind [2]?
A: Result: binds

Q: Does B1 bind [3]?
A: Result: binds
